The subject of this assay is plasma proteins. As to the kind of experiment: Plasma proteins modulated between baseline and day 28 in responders (CR, VGPR, PR; n = 19), Example 6 (Table 13). The class given is in vivo, human. The conditions noted are these: plasma protein (OLINK NPX); responders (CR, VGPR, PR; n = 19); itacitinib 200 mg or 300 mg QD with corticosteroids; day 28 vs baseline. Put shortly:
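Longitudinal comparison, day 28 versus baseline, with steroid-naive (N=10) and steroid-refractory (N=18) patients combined. Proteins measured by OLINK proximity extension, log2 normalized protein expression. Differences tested by t tests, ANOVA, Pearson correlation, P<0.05 significant.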

B1: COCH (protein, UniProt O43405 25-550, looked up)
Cochlin: EGAAPIAITCFTRGLDIRKEKADVLCPGGCPLEEFSVYGNIVYASVSSICGAAVHRGVISNSGGPVRVYSLPGRENYSSVDANGIQSQMLSRWSASFTVTKGKSSTQEATGQAVSTAHPPTGKRLKKTPEKKTGNKDCKADIAFLIDGSFNIGQRRFNLQKNFVGKVALMLGIGTEGPHVGLVQASEHPKIEFYLKNFTSAKDVLFAIKEVGFRGGNSNTGKALKHTAQKFFTVDAGVRKGIPKVVVVFIDGWPSDDIEEAGIVAREFGVNVFIVSVAKPIPEELGMVQDVTFVDKAVCRNNGFFSYHMPNWFGTTKYVKPLVQKLCTHEQMMCSKTCYNSVNIAFLIDGSSSVGDSNFRLMLEFVSNIAKTFEISDIGAKIAAVQFTYDQRTEFSFTDYSTKENVLAVIRNIRYMSGGTATGDAISFTVRNVFGPIRESPNKNFLVIVTDGQSYDDVQGPAAAAHDAGITIFSVGVAWAPLDDLKDMASKPKESHAFFTREFTGLEPIVSDVIRGICRDFLESQQ
For B1, the “Fold Change, Decreased Expression from Baseline to Day 28” value (from here on “Fold Change, Decreased Expression”) is reported as −1.22.

B2: Gal-4 (protein, UniProt P56470 1-323, looked up)
Galectin-4: MAYVPAPGYQPTYNPTLPYYQPIPGGLNVGMSVYIQGVASEHMKRFFVNFVVGQDPGSDVAFHFNPRFDGWDKVVFNTLQGGKWGSEERKRSMPFKKGAAFELVFIVLAEHYKVVVNGNPFYEYGHRLPLQMVTHLQVDGDLQLQSINFIGGQPLRPQGPPMMPPYPGPGHCHQQLNSLPTMEGPPTFNPPVPYFGRLQGGLTARRTIIIKGYVPPTGKSFAINFKVGSSGDIALHINPRMGNGTVVRNSLLNGSWGSEEKKITHNPFGPGQFFDLSIRCGLDRFKVYANGQHLFDFAHRLSAFQRVDTLEIQGDVTLSYVQI
For B2, the “Fold Change, Increased Expression from Baseline to Day 28” value is recorded as 1.4274.

B3: LAMP3 (protein, UniProt Q9UQV4 28-416, looked up)
Lysosome-associated membrane …: KAFPETRDYSQPTAAATVQDIKKPVQQPAKQAPHQTLAARFMDGHITFQTAATVKIPTTTPATTKNTATTSPITYTLVTTQATPNNSHTAPPVTEVTVGPSLAPYSLPPTITPPAHTTGTSSSTVSHTTGNTTQPSNQTTLPATLSIALHKSTTGQKPVQPTHAPGTTAAAHNTTRTAAPASTVPGPTLAPQPSSVKTGIYQVLNGSRLCIKAEMGIQLIVQDKESVFSPRRYFNIDPNATQASGNCGTRKSNLLLNFQGGFVNLTFTKDEESYYISEVGAYLTVSDPETIYQGIKHAVVMFQTAVGHSFKCVSEQSLQLSAHLQVKTTDVQLQAFDFEDDHFGNVDECSSDYTIVLPVIGAIVVGLCLMGMGVYKIRLRCQSSGYQRI
As for B3, the “Fold Change, Decreased Expression” value is given as −1.7705.

B4: CDIC (protein, UniProt P29017 18-333, looked up)
T-cell surface glycoprotein …: NADASQEHVSFHVIQIFSFVNQSWARGQGSGWLDELQTHGWDSESGTIIFLHNWSKGNFSNEELSDLELLFRFYLFGLTREIQDHASQDYSKYPFEVQVKAGCELHSGKSPEGFFQVAFNGLDLLSFQNTTWVPSPGCGSLAQSVCHLLNHQYEGVTETVYNLIRSTCPRFLLGLLDAGKMYVHRQVRPEAWLSSRPSLGSGQLLLVCHASGFYPKPVWVTWMRNEQEQLGTKHGDILPNADGTWYLQVILEVASEEPAGLSCRVRHSSLGGQDIILYWGHHFSMNWIALVVIVPLVILIVLVLWFKKHCSYQDIL
B4: the “Fold Change, Decreased Expression” value is on record as −1.5651.

B5: IGFBP-2 (protein, UniProt P18065 36-325, looked up)
Insulin-like growth …: AEVLFRCPPCTPERLAACGPPPVAPPAAVAAVAGGARMPCAELVREPGCGCCSVCARLEGEACGVYTPRCGQGLRCYPHPGSELPLQALVMGEGTCEKRRDAEYGASPEQVADNGDDHSEGGLVENHVDSTMNMLGGGGSAGRKPLKSGMKELAVFREKVTEQHRQMGKGGKHHLGLEEPKKLRPPPARTPCQQELDQVLERISTMRLPDERGPLEHLYSLHIPNCDKHGLYNLKQCKMSLNGQRGECWCVNPNTGKLIQGAPTIRGDPECHLFYNEQQEARGVHTQRMQ
Turning to B5, the “Fold Change, Decreased Expression” value is recorded as −1.2058.

The values above are taken from patent US12099068B2, “Biomarkers for graft-versus-host disease” (Incyte Corporation, priority 2018, dated 2024).
